# Results reported in patent US20100322950.
# What was measured:
# [1] = target: tissue inhibitor of matrix metalloproteinase-1 (TIMP-1) (UniProt P01033)
# [2] = system: recombinant human osteopontin (OPN), full-length
# Sequence of recombinant human osteopontin (OPN), full-length (chain, as listed by the source): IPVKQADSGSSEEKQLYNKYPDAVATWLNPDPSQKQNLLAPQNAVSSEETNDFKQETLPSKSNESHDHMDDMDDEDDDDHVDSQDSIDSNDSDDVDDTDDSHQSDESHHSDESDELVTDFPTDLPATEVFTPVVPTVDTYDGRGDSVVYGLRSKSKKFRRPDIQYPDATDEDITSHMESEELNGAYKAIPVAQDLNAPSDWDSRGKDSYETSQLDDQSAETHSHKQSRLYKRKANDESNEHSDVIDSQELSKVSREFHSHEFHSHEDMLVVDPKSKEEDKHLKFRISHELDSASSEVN
# Sequence of human matrix metalloproteinase-9 (MMP-9) (Calbiochem) (chain, as listed by the source): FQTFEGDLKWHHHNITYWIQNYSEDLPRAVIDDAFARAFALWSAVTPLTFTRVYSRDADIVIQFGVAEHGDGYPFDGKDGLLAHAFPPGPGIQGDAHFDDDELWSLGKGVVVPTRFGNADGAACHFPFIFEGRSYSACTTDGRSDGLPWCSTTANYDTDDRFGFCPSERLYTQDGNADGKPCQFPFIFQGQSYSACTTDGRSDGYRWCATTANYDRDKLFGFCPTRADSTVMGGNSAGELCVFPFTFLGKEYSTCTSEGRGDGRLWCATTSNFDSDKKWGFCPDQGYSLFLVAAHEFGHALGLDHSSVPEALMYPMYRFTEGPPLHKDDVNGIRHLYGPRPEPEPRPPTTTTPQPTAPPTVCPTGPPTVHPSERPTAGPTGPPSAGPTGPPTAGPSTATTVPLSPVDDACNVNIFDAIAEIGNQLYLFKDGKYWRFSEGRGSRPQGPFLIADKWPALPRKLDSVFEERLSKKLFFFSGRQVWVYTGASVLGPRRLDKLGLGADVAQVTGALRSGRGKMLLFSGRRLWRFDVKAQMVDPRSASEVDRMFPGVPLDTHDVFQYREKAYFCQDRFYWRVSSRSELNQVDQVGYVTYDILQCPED
# Sequence of tissue inhibitor of matrix metalloproteinase-1 (TIMP-1) (P01033 24-207): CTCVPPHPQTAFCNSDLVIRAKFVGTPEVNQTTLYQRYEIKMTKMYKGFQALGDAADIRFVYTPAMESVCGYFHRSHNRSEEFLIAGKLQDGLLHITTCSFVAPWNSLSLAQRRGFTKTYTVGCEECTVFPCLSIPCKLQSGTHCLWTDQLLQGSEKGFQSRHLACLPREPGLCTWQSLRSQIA
substance,measurement,setting,value
human matrix metalloproteinase-9 (MMP-9) (Calbiochem),"MMP-9 cleavage of OPN (formation of the OPN-5 kD fragment), TIMP-1 added to the reaction",[1],"could not be detected in cleavage reactions partially inhibited by the concomitant addition of EDTA, a naturally-occurring inhibitor of MMP-9 (tissue inhibitor of matrix metalloproteinase-1, or TIMP-1), or the hydroxamate MMP-9 inhibitor I"
same,"in vitro proteolytic cleavage of OPN (SDS-PAGE, N-terminal microsequencing, western blot)",[2],"Recombinant MMP-9 cleaved OPN at two predominant sites in vitro, residues 166 and 210, resulting in 4 identified fragments"
